Source: article PMC2925043
Each block holds one substance with its values, some of them ahead of it.

What was measured:
[1] = molecular target: EGFR (high-affinity site) (Homo sapiens) (UniProt P00533); details: cited from earlier work
[2] = molecular target: EGFR (low-affinity site) (Homo sapiens) (UniProt P00533); details: cited from earlier work
[3] = molecular target: Drosophila EGFR extracellular region lacking domain V (s-dEGFRΔV) (Drosophila melanogaster) (UniProt P04412)
[4] = molecular target: Drosophila EGFR extracellular region (s-dEGFR) with C-terminal His tag and AviTag, biotinylated (Drosophila melanogaster) (UniProt P04412); test: fluorescent ligand binding assay on plates
[5] = molecular target: dimerization-defective s-dEGFR variant (s-dEGFR^dim-arm), biotinylated (Drosophila melanogaster) (UniProt P04412); test: fluorescent ligand binding assay on plates

Substance: EGF (from UniProt P01133)
- Kd [1]: 0.3 nM
- Kd [2]: 2 nM

- Kd [3]: 4370 nM
Substance: Spitz_(EGFΔC), variant of SpitzEGF with a C-terminal truncation of six amino acids (ligand)

- KD of the high-affinity site (fit with two independent classes of site) [4]: 4.7 nM
- Kd [4]: 49.5 nM
- Kd [5]: 920 nM
Substance: SpitzEGF labeled with Alexa Fluor-488 (ligand)

- Kd [3]: 368 nM
Substance: EGF-like domain of Spitz (SpitzEGF, residues 48-105) (ligand)
